Molecular target: Recombinant Borrelia burgdorferi HtrA (HtrABb, BB0104) with intact N-terminal His-tag (Borrelia burgdorferi strain B31A3)
Test: SEC

Substance: Recombinant Borrelia burgdorferi HtrA (HtrABb, BB0104) with intact N-terminal His-tag (enzyme)
- stoichiometry N: 3

Source: paper PMC3641820
